Residue numbers refer to the chain shown, from its start. Names may count otherwise.
B1: Chimera (chimeric parental antibody) PP13892 (antibody, human IgG4, V domains shown)
VH: DVQLQESGPDLVKPSQSLSLTCTVTGYSITSGYSWHWIRQFPGNNLEWMGYIQYSGNTNSNPSLKSRISITRDTSKNQFFLHLNSVTTEDTATYYCARWGSFDYWGQGTTLTVSS
VL: QIVLTQSPAIMSASPGEKVTMTCSASSSVNYMHWYQQKSGTSPKRWIYDTSKLASGVPARFSGSGSGTSYSLTISSMEAGDAATYYCQQWSGNPPTFGGGTILEIK
notes: Variable regions of murine AB053 on the same human IgG4 (S241P hinge modified) backbone as the humanized antibodies; also called H7879 + L7879
B2: humanized 5C12 antibody HC1 + LC1 (PP13893) (antibody, human IgG4 S228P, kappa, V domains shown)
VH: QVQLQESGPGLVKPSQTLSLTCTVSGYSITSGYSWHWIRQHPGKGLEWIGYIQYSGNTNSNPSLKSRVTISRDTSKNQFSLKLSSVTAADTAVYYCARWGSFDYWGQGTLVTVSS
VL: EIVLTQSPATLSLSPGERATLSCRASSSVNYLHWYQQKPGQAPRRLIYDTSKLATGIPARFSGSGSGTDYTLTISSLEPEDFAVYYCQQWSGNPPTFGGGTKVEIKR
notes: Human IgG4 (S241P hinge modified), expressed in HEK293; also called AB054; h5C12
B3: humanized 5C12 antibody HC3 + LC2 (PP13900) (antibody, human IgG4 S228P, kappa, V domains shown)
VH: B2 VH with Q1D, Q16E, H41P, K82R, L110M
VL: B2 VL with R44K, L46W
notes: Human IgG4 (S241P hinge modified), expressed in HEK293; also called H7882 + L7881
B4: humanized 5C12 antibody HC3 + LC3 (PP13901) (antibody, human IgG4 S228P, kappa, V domains shown)
VH: B2 VH with Q1D, Q16E, H41P, K82R, L110M
VL: B2 VL with E1D, S7T, R44K, G99Q, K102R, V103L
notes: Human IgG4 (S241P hinge modified), expressed in HEK293; also called H7882 + L7882
B5: humanized 5C12 antibody HC2 + LC2 (PP13897) (antibody, human IgG4 S228P, kappa, V domains shown)
VH: B2 VH with Q1D, S25T, I49M
VL: B2 VL with R44K, L46W
notes: Human IgG4 (S241P hinge modified), expressed in HEK293; also called H7881 + L7881
B6: humanized 5C12 antibody HC1 + LC2 (PP13894) (antibody, human IgG4 S228P, kappa, V domains shown)
VH: B2 VH
VL: B2 VL with R44K, L46W
notes: Human IgG4 (S241P hinge modified), expressed in HEK293; also called H7880 + L7881
B7: humanized 5C12 antibody HC3 + LC1 (PP13899) (antibody, human IgG4 S228P, kappa, V domains shown)
VH: B2 VH with Q1D, Q16E, H41P, K82R, L110M
VL: B2 VL
notes: Human IgG4 (S241P hinge modified), expressed in HEK293; also called H7882 + L7880
B8: humanized 5C12 antibody HC1 + LC3 (PP13895) (antibody, human IgG4 S228P, kappa, V domains shown)
VH: B2 VH
VL: B2 VL with E1D, S7T, R44K, G99Q, K102R, V103L
notes: Human IgG4 (S241P hinge modified), expressed in HEK293; also called H7880 + L7882
B9: humanized 5C12 antibody HC2 + LC3 (PP13898) (antibody, human IgG4 S228P, kappa, V domains shown)
VH: B2 VH with Q1D, S25T, I49M
VL: B2 VL with E1D, S7T, R44K, G99Q, K102R, V103L
notes: Human IgG4 (S241P hinge modified), expressed in HEK293; also called H7881 + L7882
B10: humanized 5C12 antibody HC2 + LC1 (PP13896) (antibody, human IgG4 S228P, kappa, V domains shown)
VH: B2 VH with Q1D, S25T, I49M
VL: B2 VL
notes: Human IgG4 (S241P hinge modified), expressed in HEK293; also called H7881 + L7880

These binders were tested against T1, human blood protein factor XII (FXII) (human, UniProt P00748 20-615) (assay: BLI (Octet RED96), antibody on anti-human Fc biosensors, antigen in solution, 1:1 fit).
T1 construct: mature; Single-chain zymogen as it circulates in plasma; also called human FXII; plasma-derived FXII
T1 sequence (looked up): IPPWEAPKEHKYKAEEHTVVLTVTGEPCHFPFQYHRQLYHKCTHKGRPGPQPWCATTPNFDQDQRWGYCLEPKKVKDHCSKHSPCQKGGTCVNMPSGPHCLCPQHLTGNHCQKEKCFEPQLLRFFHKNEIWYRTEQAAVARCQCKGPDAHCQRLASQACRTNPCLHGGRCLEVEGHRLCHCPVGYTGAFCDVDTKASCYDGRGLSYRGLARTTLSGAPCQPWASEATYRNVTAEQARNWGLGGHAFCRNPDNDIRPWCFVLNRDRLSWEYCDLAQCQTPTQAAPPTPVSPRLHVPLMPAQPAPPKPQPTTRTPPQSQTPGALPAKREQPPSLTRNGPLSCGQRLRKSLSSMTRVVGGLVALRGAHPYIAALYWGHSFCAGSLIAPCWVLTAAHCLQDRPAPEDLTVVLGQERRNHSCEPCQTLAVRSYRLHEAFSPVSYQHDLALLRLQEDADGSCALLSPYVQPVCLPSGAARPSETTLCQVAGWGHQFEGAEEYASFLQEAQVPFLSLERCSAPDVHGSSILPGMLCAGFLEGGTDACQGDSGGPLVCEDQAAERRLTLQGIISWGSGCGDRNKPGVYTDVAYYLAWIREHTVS
Description: Multi-concentration kinetic experiments were performed on the Octet RED96 system (ForteBio). Anti-human Fc biosensors (ForteBio) were hydrated in sample diluent (0.1% BSA in PBS and 0.02% Tween 20) and preconditioned in pH 1.9 Glycine. Antigen was diluted by a 7-point, 3-fold serial dilution starting at 200 nM with sample diluent. Antibodies were diluted to 1μg/ml with sample diluent and then immobilized onto anti-human Fc biosensors. After baselines were established for 30 seconds in sample diluent, the biosensors were moved to wells containing serially diluted antigen to measure the association and dissociation. […] The binding affinities were characterized by fitting the kinetic sensorgrams to a monovalent binding model (1:1 binding).

| Binder | Kd [nM] | koff [s⁻¹] | kon [M⁻¹ s⁻¹] |
| --- | --- | --- | --- |
| B1 | 0.24 | 0.00011 | 460000 |
| B2 | 0.3 | 0.00016 | 530000 |
| B3 | 0.32 | 0.00019 | 580000 |
| B4 | 0.35 | 0.00018 | 530000 |
| B5 | 0.15 | 9e-05 | 620000 |
| B6 | 0.3 | 0.00016 | 530000 |
| B7 | 0.27 | 0.00015 | 560000 |
| B8 | 0.41 | 0.0002 | 500000 |
| B9 | 0.31 | 0.00016 | 500000 |
| B10 | 0.44 | 0.00022 | 500000 |

What follows are binders tested against T1, human blood protein factor XII (FXII) (assay: ELISA, human FXII coated at 1 µg/mL, goat anti-human IgG-HRP detection).
Description: One μg/mL of human FXII (Enzyme Research Labs, #HFXII 1212) was coated on the ELISA plate at 4° C. overnight. The coated plate was blocked with 2% BSA in phosphate buffered saline (PBS) at room temperature for one hour and then washed three times with PBS. All antibodies to be tested (PP13892-PP13901 or human Fc isotype control) were diluted with sample diluent in an 11 point, 5-fold, serial dilution starting at 10 μg/mL. Each sample was run in duplicate. Each concentration was incubated on the coated plate for one hour at room temperature and then washed three times with PBS. Bound antibody was detected with goat-anti-human IgG-HRP and washed six times with PBS. TMB substrate was added to each well and the reaction was stopped with 1M HCl. Absorbance was read at 450 nm.
EC₅₀ for the concentration response curve was calculated by plotting the OD measured at 450 nm against the logarithm of antibody concentration and the EC₅₀ was calculated by nonlinear regression analysis.

| Binder | EC50 [ng/mL] |
| --- | --- |
| B1 | 9.04 |
| B2 | 9.12 |
| B3 | 7.69 |
| B4 | 9.47 |
| B5 | 8.78 |
| B6 | 8.22 |
| B7 | 8.48 |
| B8 | 9.02 |
| B9 | 8.09 |
| B10 | 8.24 |
